The target of assay [1] is C3b:FH complex (C3b with WT FH CCP 1-4) (UniProt P01024). Briefly: SPR; TMC building, FI variants: FI variants on the inactive (S525A) backbone (125-15.625 nM; 62.5 nM shown) co-injected with FH1-4 at constant concentration (125 nM in the methods, 118 nM in the legend) onto thioester-coupled C3b (1000 RU); PBST + Mg2+.
For assay [2], the target named is C3b with FH CCP 1-4 R166W (UniProt P01024). Briefly: SPR; TMC building, FH variants: FH1-4 (118-14.75 nM) co-injected with 118 nM inactive (S525A) FI onto C3b (1000 RU, thiol/thioester coupled) CM5 chip; PBST + 1 mM MgCl2, 25°C, 2 min at 30 µl/min. Background: Surface plasmon resonance follows binding to a sensor surface in real time, without labels.
The target of a further assay is C3b with FH CCP 1-4 P26S (UniProt P01024). Described as above.
A further assay concerns the target C3b with FH CCP 1-4 R83S (UniProt P01024). The assay is described as above.
In a further assay the target is C3b with FH CCP 1-4 T91S (UniProt P01024). Described as above.
Assay [3] concerns the target C3b with FH CCP 1-4 R232Q (UniProt P01024). Described as above.
In assay [4] the target is C3b:FH complex (C3b with WT FH CCP 1-4) (UniProt P01024). Described as above.
For assay [5] the target is unchanged.
In assay [6] the target is C3b (UniProt P01024). Briefly: SPR; BIAcore S200; C3b (800-1000 RU) on a CM5 chip; FH1-4 variants flowed at 20 to 0.3125 µM, 90 s at 30 µL/min; steady state fit, estimated KD; done once in HBST and once in PBST (PBST shown).
In assay [7] the target is C3b (UniProt P01024).
The target in assay [8] is C3b:FH complex (C3b with WT FH CCP 1-4) (UniProt P01024). This is another data set of the same source.
Assay [9] concerns the target C3b (UniProt P01024). Kind of assay: SPR; BIAcore S200; C3b (800-1000 RU) on a CM5 chip; FH1-4 variants flowed at 20 to 0.3125 µM, 90 s at 30 µL/min; steady state fit, estimated KD; done once in HBST and once in PBST (PBST shown). The source holds these as a separate data set.

Where two headings read alike, the source gives them in different places.

This is an account of results in PMC9832388.

The Kd is the free concentration of one partner at which half of the binding sites on the other are occupied at equilibrium, for simple one-to-one binding.

Sequence of C3b (P01024 23-667, chain 1 of 2): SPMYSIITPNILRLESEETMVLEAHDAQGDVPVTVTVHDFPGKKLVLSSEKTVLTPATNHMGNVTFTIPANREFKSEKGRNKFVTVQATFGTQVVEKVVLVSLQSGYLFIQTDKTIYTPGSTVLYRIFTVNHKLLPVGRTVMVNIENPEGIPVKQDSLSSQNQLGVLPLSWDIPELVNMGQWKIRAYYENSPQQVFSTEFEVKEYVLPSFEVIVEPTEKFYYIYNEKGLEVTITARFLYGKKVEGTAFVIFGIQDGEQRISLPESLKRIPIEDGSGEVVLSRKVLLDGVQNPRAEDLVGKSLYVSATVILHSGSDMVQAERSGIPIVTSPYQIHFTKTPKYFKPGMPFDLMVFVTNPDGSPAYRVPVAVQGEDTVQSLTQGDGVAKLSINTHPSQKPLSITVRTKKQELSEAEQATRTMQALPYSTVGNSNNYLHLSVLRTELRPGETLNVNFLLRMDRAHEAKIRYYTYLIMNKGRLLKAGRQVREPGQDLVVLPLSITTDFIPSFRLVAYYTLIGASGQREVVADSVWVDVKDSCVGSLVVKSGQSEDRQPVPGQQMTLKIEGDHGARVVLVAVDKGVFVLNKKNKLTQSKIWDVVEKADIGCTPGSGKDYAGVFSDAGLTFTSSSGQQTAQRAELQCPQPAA
Sequence of C3b (P01024 749-1663, chain 2 of 2): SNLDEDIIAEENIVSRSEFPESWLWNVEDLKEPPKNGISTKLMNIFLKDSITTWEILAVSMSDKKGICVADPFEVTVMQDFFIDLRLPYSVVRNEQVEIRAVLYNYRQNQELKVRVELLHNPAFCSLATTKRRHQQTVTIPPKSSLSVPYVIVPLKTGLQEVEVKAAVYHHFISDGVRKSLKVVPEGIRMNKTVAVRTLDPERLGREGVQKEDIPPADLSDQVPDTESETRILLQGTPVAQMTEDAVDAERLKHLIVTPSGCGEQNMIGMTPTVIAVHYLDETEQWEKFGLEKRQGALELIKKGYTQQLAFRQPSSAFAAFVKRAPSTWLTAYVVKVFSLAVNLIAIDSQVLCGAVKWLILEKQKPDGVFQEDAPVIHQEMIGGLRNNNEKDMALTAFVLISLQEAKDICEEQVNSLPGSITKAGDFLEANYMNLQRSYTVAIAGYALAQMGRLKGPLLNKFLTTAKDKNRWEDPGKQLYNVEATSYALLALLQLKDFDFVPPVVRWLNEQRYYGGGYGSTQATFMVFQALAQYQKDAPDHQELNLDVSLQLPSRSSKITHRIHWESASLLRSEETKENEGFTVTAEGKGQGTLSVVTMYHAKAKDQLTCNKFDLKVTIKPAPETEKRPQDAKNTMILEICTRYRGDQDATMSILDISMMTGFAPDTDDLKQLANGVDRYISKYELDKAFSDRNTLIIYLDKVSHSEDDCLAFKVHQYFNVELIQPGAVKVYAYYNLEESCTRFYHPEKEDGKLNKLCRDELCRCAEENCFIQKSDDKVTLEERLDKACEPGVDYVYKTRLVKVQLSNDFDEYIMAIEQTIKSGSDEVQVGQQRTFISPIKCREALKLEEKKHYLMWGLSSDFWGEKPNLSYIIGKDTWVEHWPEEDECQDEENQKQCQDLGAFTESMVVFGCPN
Sequence of C3b:FH complex (C3b with WT FH CCP 1-4) (P01024 23-667, chain 1 of 3): as the sequence (P01024 23-667, chain 1 of 2) above
Sequence of C3b:FH complex (C3b with WT FH CCP 1-4) (P01024 749-1663, chain 2 of 3): as the sequence (P01024 749-1663, chain 2 of 2) above
Sequence of C3b:FH complex (C3b with WT FH CCP 1-4) (P08603 19-1231, chain 3 of 3, further chain): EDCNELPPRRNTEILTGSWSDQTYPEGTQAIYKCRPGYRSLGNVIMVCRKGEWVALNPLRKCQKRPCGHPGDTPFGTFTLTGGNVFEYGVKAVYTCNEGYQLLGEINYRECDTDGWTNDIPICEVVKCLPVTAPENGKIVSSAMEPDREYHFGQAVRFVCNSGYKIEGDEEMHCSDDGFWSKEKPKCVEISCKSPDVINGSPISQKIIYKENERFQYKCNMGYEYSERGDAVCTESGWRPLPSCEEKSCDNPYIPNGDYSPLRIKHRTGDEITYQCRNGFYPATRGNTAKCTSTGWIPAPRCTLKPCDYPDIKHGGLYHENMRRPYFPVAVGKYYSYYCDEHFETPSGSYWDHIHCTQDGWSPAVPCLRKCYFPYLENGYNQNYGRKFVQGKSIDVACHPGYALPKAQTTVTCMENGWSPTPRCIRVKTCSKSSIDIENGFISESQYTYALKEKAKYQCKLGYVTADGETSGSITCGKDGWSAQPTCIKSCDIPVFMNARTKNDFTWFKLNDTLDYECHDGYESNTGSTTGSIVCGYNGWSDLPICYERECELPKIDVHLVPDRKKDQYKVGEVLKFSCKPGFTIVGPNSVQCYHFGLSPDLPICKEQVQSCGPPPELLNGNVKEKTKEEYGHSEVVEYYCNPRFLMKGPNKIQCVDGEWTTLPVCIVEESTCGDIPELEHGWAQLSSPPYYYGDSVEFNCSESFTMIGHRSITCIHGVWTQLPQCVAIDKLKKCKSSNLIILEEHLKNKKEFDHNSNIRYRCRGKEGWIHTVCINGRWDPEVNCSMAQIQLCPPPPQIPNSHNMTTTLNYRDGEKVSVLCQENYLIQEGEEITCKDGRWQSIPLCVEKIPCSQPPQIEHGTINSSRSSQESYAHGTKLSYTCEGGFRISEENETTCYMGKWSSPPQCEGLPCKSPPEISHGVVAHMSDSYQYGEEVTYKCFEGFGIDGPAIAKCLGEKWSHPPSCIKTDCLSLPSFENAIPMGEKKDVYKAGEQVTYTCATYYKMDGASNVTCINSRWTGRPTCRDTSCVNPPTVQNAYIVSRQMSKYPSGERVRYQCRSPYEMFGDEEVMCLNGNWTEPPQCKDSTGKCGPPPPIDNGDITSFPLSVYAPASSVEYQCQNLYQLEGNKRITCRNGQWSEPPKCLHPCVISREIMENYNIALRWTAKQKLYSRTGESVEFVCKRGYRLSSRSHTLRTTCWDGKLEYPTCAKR
Sequence of C3b with FH CCP 1-4 R83S (P01024 23-667, chain 1 of 3): as the sequence (P01024 23-667, chain 1 of 2) above
Sequence of C3b with FH CCP 1-4 R83S (P01024 749-1663, chain 2 of 3): as the sequence (P01024 749-1663, chain 2 of 2) above
Sequence of C3b with FH CCP 1-4 R83S (P08603 19-1231 R83S, chain 3 of 3, further chain): as the sequence (P08603 19-1231, chain 3 of 3, further chain) above, with R65S counted along it
Sequence of C3b with FH CCP 1-4 R166W (P01024 23-667, chain 1 of 3): as the sequence (P01024 23-667, chain 1 of 2) above
Sequence of C3b with FH CCP 1-4 R166W (P01024 749-1663, chain 2 of 3): as the sequence (P01024 749-1663, chain 2 of 2) above
Sequence of C3b with FH CCP 1-4 R166W (P08603 19-1231 R166W, chain 3 of 3, further chain): as the sequence (P08603 19-1231, chain 3 of 3, further chain) above, with R148W counted along it
Sequence of C3b with FH CCP 1-4 T91S (P01024 23-667, chain 1 of 3): as the sequence (P01024 23-667, chain 1 of 2) above
Sequence of C3b with FH CCP 1-4 T91S (P01024 749-1663, chain 2 of 3): as the sequence (P01024 749-1663, chain 2 of 2) above
Sequence of C3b with FH CCP 1-4 T91S (P08603 19-1231 T91S, chain 3 of 3, further chain): as the sequence (P08603 19-1231, chain 3 of 3, further chain) above, with T73S counted along it
Sequence of C3b with FH CCP 1-4 R232Q (P01024 23-667, chain 1 of 3): as the sequence (P01024 23-667, chain 1 of 2) above
Sequence of C3b with FH CCP 1-4 R232Q (P01024 749-1663, chain 2 of 3): as the sequence (P01024 749-1663, chain 2 of 2) above
Sequence of C3b with FH CCP 1-4 R232Q (P08603 19-1231 R232Q, chain 3 of 3, further chain): as the sequence (P08603 19-1231, chain 3 of 3, further chain) above, with R214Q counted along it
Sequence of C3b with FH CCP 1-4 P26S (P01024 23-667, chain 1 of 3): as the sequence (P01024 23-667, chain 1 of 2) above
Sequence of C3b with FH CCP 1-4 P26S (P01024 749-1663, chain 2 of 3): as the sequence (P01024 749-1663, chain 2 of 2) above
Sequence of C3b with FH CCP 1-4 P26S (P08603 19-1231 P26S, chain 3 of 3, further chain): as the sequence (P08603 19-1231, chain 3 of 3, further chain) above, with P8S counted along it

With “FI K441R/S525A (from UniProt P05156 19-335; P05156 340-583) (enzyme)”, in assay [1], the RU of the TMC (62.5 nM FI variant with FH1-4) is 91.2 RU and the percent of the response of inactive WT FI turned out to be 94%.
On the same counts, the results for “FI R406H/S525A (from UniProt P05156 19-335; P05156 340-583) (enzyme)” are 74.6 RU and 77%.
With “inactive FI (S525A FI) (from UniProt P05156 19-335; P05156 340-583) (enzyme)”, the peak RU of the TMC (59 nM FH1-4 with 118 nM S525A FI) in [2] was found to be 7 RU; with C3b with FH CCP 1-4 P26S, 29 RU; with C3b with FH CCP 1-4 R83S it was 5 RU; with C3b with FH CCP 1-4 T91S it was 30 RU; in assay [3] it was 6 RU; in assay [4] it was 40 RU. Further, in assay [4], the RU of the TMC (118 nM FH1-4 with 118 nM inactive FI) came out at 60 RU. The substance further displayed an inhibition of C3b cleavage by WT FI in a fluid phase CA assay with increasing S525A FI (15% at equimolar, 20% at 2-fold molar) in assay [5] of 20%.
With “FH CCP 1-4 P26S (from UniProt P08603 19-1231) (domain or fragment)”, the Kd with C3b [6] was 11.5 µM.
Regarding “FI P553S/S525A (from UniProt P05156 19-335; P05156 340-583) (enzyme)”, in assay [1], the RU of the TMC (62.5 nM FI variant with FH1-4) was determined as 62.9 RU and the percent of the response of inactive WT FI turned out to be 65%.
As for “FH CCP 1-4 R232Q (from UniProt P08603 19-1231) (domain or fragment)”, the fluid phase cofactor activity with FI and C3b: reduction in C3b α’ chain degradation (% reduced compared to WT) in the assay with C3b [7] amounted to 41.
Regarding “FH CCP 1-4 T91S (from UniProt P08603 19-1231) (domain or fragment)”, the Kd with C3b [6] is 9.4 µM.
Regarding “H380R FI (from UniProt P05156 19-335; P05156 340-583) (enzyme)”, the inhibition of the activity of WT FI in a fluid phase CA assay with increasing H380R FI (~20% at equimolar, 35% at 2-fold molar) in assay [8] was determined as 35%.
Regarding “FH CCP 1-4 R166W (from UniProt P08603 19-1231) (domain or fragment)”, the figures for the Kd with C3b [6] and with C3b [9] were 16.7 µM and 16 to 20 µM, respectively.
For “FH CCP 1-4 WT (from UniProt P08603 19-1231) (domain or fragment)”, the Kd in the assay with C3b [6] was 10 µM.
